From the supplement of paper PMC10567573

B1: TRIM43 (parent)
chain: RAQMIRNEYRKLHPVLHKEEKQHL

Variants of: B1
Test: protein stability index of a GFP-peptide fusion (GPS, HEK-293T) (PSI 1-6); higher = more stable
Settings: c terminus: a fixed tail appended
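Also: lentivirally expressed fusions sorted by FACS into six bins by GFP to DsRed ratio, PSI derived from sequencing read proportions per bin multiplied by bin number.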

In order of falling protein stability index:
1. RAQMIRNEYRKLHPVLHKEEKQHE [L24E]  4.61
2. RAQMIRNEYRKLHPVLHKEEKQHD [L24D]  4.51
3. RAQMIRNEYRKLHPVLKKEEKQHL [H17K]  4.15
4. RAQMIRNEYRKLHPVLEKEEKQHL [H17E]  4.14
5. RAQMIRNEYRKLHPVLHEEEKQHL [K18E]  4.06
6. RAQMIRNEYRKLHPVLHKEEKEHL [Q22E]  3.82
7. RAQMIRNEYRKLHPVLRKEEKQHL [H17R]  3.79
8. RAQMIRNEYRKLHPVLVKEEKQHL [H17V]  3.74
9. RAQMIRNEYRKLHPVLHKEEKQHG [L24G]  3.67
10. RAQMIRNEYRKLHPVLHKEEKDHL [Q22D]  3.65
11. RAQMIRNEYRKLHPVLHKEEKQHC [L24C]  3.65
12. RAQMIRNEYRKLHPVLHKEEKRHL [Q22R]  3.62
13. RAQMIRNEYRKLHPVLHKEEKQHH [L24H]  3.61
14. RAQMIRNEYRKLHPVLHKEEKQHA [L24A]  3.59
15. RAQMIRNEYRKLHPVLHHEEKQHL [K18H]  3.59
16. RAQMIRNEYRKLHPVLGKEEKQHL [H17G]  3.56
17. RAQMIRNEYRKLHPVLHSEEKQHL [K18S]  3.54
18. RAQMIRNEYRKLHLVLHKEEKQHL [P14L]  3.51
19. RAQMIRNEYRKLHPVLDKEEKQHL [H17D]  3.5
20. RAQMIRNEYRKLHPVLHQEEKQHL [K18Q]  3.49
21. RAQMIRNEYRKLHPVLHPEEKQHL [K18P]  3.48
22. RAQMIRNEYRKLHPVLHKEEKPHL [Q22P]  3.47
23. RAQMIRNEYRKLHPVLHDEEKQHL [K18D]  3.45
24. RAQMIRNEYRKLHPVLPKEEKQHL [H17P]  3.42
25. RAQMIRNEYRKLHPVLHKEDKQHL [E20D]  3.38
26. RAQMIRNEYRKLHPVLHGEEKQHL [K18G]  3.37
27. RAQMIRNEYRKLHPVLHKEEKSHL [Q22S]  3.3
28. RAQMIRNEYRKLHPVLNKEEKQHL [H17N]  3.28
29. RAQMIRNEYRKLHPVLHVEEKQHL [K18V]  3.26
30. RAQMIRNEYRKLHRVLHKEEKQHL [P14R]  3.23
31. RAQMIRNEYRKLHPVLTKEEKQHL [H17T]  3.2
32. RAQMIRNEYRKLHPVLHNEEKQHL [K18N]  3.2
33. RAQMIRNEYRKLHPVLHYEEKQHL [K18Y]  3.09
34. RAQMIRNEYRKLHPVLQKEEKQHL [H17Q]  3.07
35. RAQMIRNEYRKLHPVLHKEEKNHL [Q22N]  3.07
36. RAQMIRNEYRKLHPVLHTEEKQHL [K18T]  3.06
37. RAQMIRNEYRKLHPVLHKEEKKHL [Q22K]  2.99
38. RAQMIRNEYRKLHPVLYKEEKQHL [H17Y]  2.96
39. RAQMIRNEYRKLHPVLHKEKKQHL [E20K]  2.95
40. RAQMIRNEYRKLHPVLHLEEKQHL [K18L]  2.95
41. RAQMIRNEYRKLHPVLLKEEKQHL [H17L]  2.93
42. RAQMIRNEYRKLHPVLHKEEKHHL [Q22H]  2.91
43. RAQMIRNEYRKLHPVLHKEEKAHL [Q22A]  2.89
44. RAQMIRNEYRKLHPVLHKESKQHL [E20S]  2.85
45. RAQMIRNEYRKLHPVLHKETKQHL [E20T]  2.83
46. RAQMIRNEYRKLHPVLMKEEKQHL [H17M]  2.81
47. RAQMIRNEYRKLHPVLHAEEKQHL [K18A]  2.81
48. RAQMIRNEYRKLHPVLIKEEKQHL [H17I]  2.8
49. RAQMIRNEYRKLHPVLWKEEKQHL [H17W]  2.8
50. RAQMIRNEYRKLHTVLHKEEKQHL [P14T]  2.77
51. RAQMIRNEYRKLHPVLHKEQKQHL [E20Q]  2.76
52. RAQMIRNEYRKLHPVLHKEEKYHL [Q22Y]  2.71
53. RAQMIRNEYRKLHKVLHKEEKQHL [P14K]  2.7
54. RAQMIRNEYRKLHPVLHCEEKQHL [K18C]  2.7
55. RAQMIRNEYRKLHPVLSKEEKQHL [H17S]  2.67
56. RAQMIRNEYRKLHPVLHKEEKVHL [Q22V]  2.64
57. RAQMIRNEYRKLHNVLHKEEKQHL [P14N]  2.64
58. RAQMIRNEYRKLHPVLHKEHKQHL [E20H]  2.63
59. RAQMIRNEYRKLHPVLHMEEKQHL [K18M]  2.6
60. RAQMIRNEYRKLHPVLHIEEKQHL [K18I]  2.6
61. RAQMIRNEYRKLHVVLHKEEKQHL [P14V]  2.59
62. RAQMIRNEYRKLHPVLCKEEKQHL [H17C]  2.58
63. RAQMIRNEYRKLHPVLHKEEKTHL [Q22T]  2.58
64. RAQMIRNEYRKLHPVLHKECKQHL [E20C]  2.57
65. RAQMIRNEYRKLHPVLHREEKQHL [K18R]  2.55
66. RAQMIRNEYRKLHPVLHKEEKCHL [Q22C]  2.54
67. RAQMIRNEYRKLHPVLHKEEKIHL [Q22I]  2.54
68. RAQMIRNEYRKLHPVLFKEEKQHL [H17F]  2.53
69. RAQMIRNEYRKLHWVLHKEEKQHL [P14W]  2.51
70. RAQMIRNEYRKLHQVLHKEEKQHL [P14Q]  2.51
71. RAQMIRNEYRKLHMVLHKEEKQHL [P14M]  2.5
72. RAQMIRNEYRKLHPVLHWEEKQHL [K18W]  2.44
73. RAQMIRNEYRKLHPVLHKEIKQHL [E20I]  2.42
74. RAQMIRNEYRKLHPVLHFEEKQHL [K18F]  2.4
75. RAQMIRNEYRKLHPVLAKEEKQHL [H17A]  2.37
76. RAQMIRNEYRKLHPVLHKEEKQHF [L24F]  2.36
77. RAQMIRNEYRKLHPVLHKEEKGHL [Q22G]  2.34
78. RAQMIRNEYRKLHPVLHKEEKLHL [Q22L]  2.33
79. RAQMIRNEYRKLHPVLHKENKQHL [E20N]  2.32
80. RAQMIRNEYRKLHPVLHKEAKQHL [E20A]  2.32
81. RAQMIRNEYRKLHPVLHKEEKMHL [Q22M]  2.3
82. RAQMIRNEYRKLHPVLHKEGKQHL [E20G]  2.29
83. RAQMIRNEYRKLHPVLHKEMKQHL [E20M]  2.29
84. RAQMIRNEYRKLHYVLHKEEKQHL [P14Y]  2.27
85. RAQMIRNEYRKLHPVLHKEPKQHL [E20P]  2.09
86. RAQMIRNEYRKLHSVLHKEEKQHL [P14S]  2.04
87. RAQMIRNEYRKLHPVLHKEEKWHL [Q22W]  2
88. RAQMIRNEYRKLHPVLHKEVKQHL [E20V]  1.97
89. RAQMIRNEYRKLHPVLHKEFKQHL [E20F]  1.91
90. RAQMIRNEYRKLHPVLHKEEKFHL [Q22F]  1.86
91. RAQMIRNEYRKLHPVLHKERKQHL [E20R]  1.83
92. RAQMIRNEYRKLHPVLHKELKQHL [E20L]  1.83
93. RAQMIRNEYRKLHPVLHKEYKQHL [E20Y]  1.83
94. RAQMIRNEYRKLHPVLHKEWKQHL [E20W]  1.66
